Data taken from doi:10.1101/2021.09.02.458805 (bioRxiv, 2021).

B1: Cft2(S), residues 1-720 (domain or fragment, S. cerevisiae, UniProt Q12102 1-720, looked up)
chain: MTYKYNCCDDGSGTTVGSVVRFDNVTLLIDPGWNPSKVSYEQCIKYWEKVIPEIDVIILSQPTIECLGAHSLLYYNFTSHFISRIQVYATLPVINLGRVSTIDSYASAGVIGPYDTNKLDLEDIEISFDHIVPLKYSQLVDLRSRYDGLTLLAYNAGVCPGGSIWCISTYSEKLVYAKRWNHTRDNILNAASILDATGKPLSTLMRPSAIITTLDRFGSSQPFKKRSKIFKDTLKKGLSSDGSVIIPVDMSGKFLDLFTQVHELLFESTKINAHTQVPVLILSYARGRTLTYAKSMLEWLSPSLLKTWENRNNTSPFEIGSRIKIIAPNELSKYPGSKICFVSEVGALINEVIIKVGNSEKTTLILTKPSFECASSLDKILEIVEQDERNWKTFPEDGKSFLCDNYISIDTIKEEPLSKEETEAFKVQLKEKKRDRNKKILLVKRESKKLANGNAIIDDTNGERAMRNQDILVENVNGVPPIDHIMGGDEDDDEEEENDNLLNLLKDNSEKSAAKKNTEVPVDIIIQPSAASKHKMFPFNPAKIKKDDYGTVVDFTMFLPDDSDNVNQNSRKRPLKDGAKTTSPVNEEDNKNEEEDGYNMSDPISKRSKHRASRYSGFSGTGEAENFDNLDYLKIDKTLSKRTISTVNVQLKCSVVILNLQSLVDQRSASIIWPSLKSRKIVLSAPKQIQNEEITAKLIKKNIEVVNMPLNKIVEFSTTI

Key:
Cft1 = target: T1, Cft1 (S. cerevisiae, UniProt Q06632 1-1357); experiment: cryo-EM structure
T1 sequence (looked up): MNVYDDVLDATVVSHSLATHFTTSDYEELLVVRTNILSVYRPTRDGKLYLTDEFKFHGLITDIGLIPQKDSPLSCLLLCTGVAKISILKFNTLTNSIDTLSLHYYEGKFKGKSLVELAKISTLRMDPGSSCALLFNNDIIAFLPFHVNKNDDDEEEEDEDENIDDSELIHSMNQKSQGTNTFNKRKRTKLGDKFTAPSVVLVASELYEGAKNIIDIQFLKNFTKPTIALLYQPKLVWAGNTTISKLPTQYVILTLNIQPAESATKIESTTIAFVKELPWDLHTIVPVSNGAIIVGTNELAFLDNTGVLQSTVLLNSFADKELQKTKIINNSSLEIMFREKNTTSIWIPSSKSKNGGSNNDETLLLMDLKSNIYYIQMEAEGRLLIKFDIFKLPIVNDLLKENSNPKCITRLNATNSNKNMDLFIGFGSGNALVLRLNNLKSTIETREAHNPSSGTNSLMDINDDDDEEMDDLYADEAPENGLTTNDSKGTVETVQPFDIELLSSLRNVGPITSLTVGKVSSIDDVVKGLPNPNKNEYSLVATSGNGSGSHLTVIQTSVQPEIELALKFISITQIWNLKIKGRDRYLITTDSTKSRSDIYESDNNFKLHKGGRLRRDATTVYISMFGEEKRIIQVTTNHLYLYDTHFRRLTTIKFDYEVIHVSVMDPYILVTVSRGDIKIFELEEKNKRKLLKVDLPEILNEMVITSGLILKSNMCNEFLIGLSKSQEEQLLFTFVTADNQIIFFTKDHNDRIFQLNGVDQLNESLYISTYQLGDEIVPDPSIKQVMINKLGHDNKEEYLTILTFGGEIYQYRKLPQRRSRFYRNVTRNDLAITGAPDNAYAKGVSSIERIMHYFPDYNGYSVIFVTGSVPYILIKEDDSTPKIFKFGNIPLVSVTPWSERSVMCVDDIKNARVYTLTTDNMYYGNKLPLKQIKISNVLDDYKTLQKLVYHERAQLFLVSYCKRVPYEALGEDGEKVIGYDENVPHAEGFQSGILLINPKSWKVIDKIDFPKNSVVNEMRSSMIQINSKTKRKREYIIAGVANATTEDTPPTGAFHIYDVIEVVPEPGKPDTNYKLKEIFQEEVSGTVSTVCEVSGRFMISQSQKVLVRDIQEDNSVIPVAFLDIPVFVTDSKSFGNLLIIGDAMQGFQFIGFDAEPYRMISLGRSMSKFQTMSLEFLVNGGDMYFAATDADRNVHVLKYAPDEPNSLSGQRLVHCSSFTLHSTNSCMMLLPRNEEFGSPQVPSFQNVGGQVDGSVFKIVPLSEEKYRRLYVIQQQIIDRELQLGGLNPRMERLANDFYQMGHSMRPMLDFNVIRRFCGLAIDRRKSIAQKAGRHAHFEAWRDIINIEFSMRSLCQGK

Cft2(S), residues 1-720 [1] = target: B1; experiment: cryo-EM structure
Cft2(S), residues 1-720 [2] = target: B1; experiment: cross-linking

B1: binds (Cft1).

B2: Pfs2 with SII tag, as subunit of the purified polymerase module (natural protein, S. cerevisiae, UniProt P42841 1-465, looked up)
chain: MDGHNQNQYQNQNQIQQSQQPPLKKYVTQRRSVDVSSPYINLYYNRRHGLPNLVVEPETSYTIDIMPPNAYRGRDRVINLPSKFTHLSSNKVKHVIPAIQWTPEGRRLVVATYSGEFSLWNASSFTFETLMQAHDSAVTTMKYSHDSDWMISGDADGMIKIWQPNFSMVKEIDAAHTESIRDMAFSSNDSKFVTCSDDNILKIWNFSNGKQERVLSGHHWDVKSCDWHPEMGLIASASKDNLVKLWDPRSGNCISSILKFKHTVLKTRFQPTKGNLLMAISKDKSCRVFDIRYSMKELMCVRDETDYMTLEWHPINESMFTLACYDGSLKHFDLLQNLNEPILTIPYAHDKCITSLSYNPVGHIFATAAKDRTIRFWTRARPIDPNAYDDPTYNNKKINGWFFGINNDINAVREKSEFGAAPPPPATLEPHALPNMNGFINKKPRQEIPGIDSNIKSSTLPGLSI
B2: binds (Cft2(S), residues 1-720 [1]).

B3: Yth1 (natural protein, S. cerevisiae, UniProt Q06102 1-208, looked up)
chain: MSLIHPDTAKYPFKFEPFLRQEYSFSLDPDRPICEFYNSREGPKSCPRGPLCPKKHVLPIFQNKIVCRHWLRGLCKKNDQCEYLHEYNLRKMPECVFFSKNGYCTQSPDCQYLHIDPASKIPKCENYEMGFCPLGSSCPRRHIKKVFCQRYMTGFCPLGKDECDMEHPQFIIPDEGSKLRIKRDDEINTRKMDEEKERRLNAIINGEV
B3: binds (Cft2(S), residues 1-720 [2]).
